Data published in patent EP1106183A2.

Tests used:
[1] = target: human ErbB2 on BT474 human breast tumor cells (human) (UniProt P04626); test: cell-based or functional assay
[2] = target: human ErbB2 on BT474 human breast tumor cells (human) (UniProt P04626); test: Scatchard analysis; 125I-labelled antibody on BT474 cell monolayers, 4 h on ice

| % apoptosis of BT474 cell population (Hoechst 33342 cell cycle analysis, 3 days) [1] | proportion of S-phase cells (BT474, 3 days) [1] | Kd [2] | Substance |
| --- | --- | --- | --- |
| 41.9% | 5.4% | 6.5 nM | anti-ErbB2 IgG1κ murine monoclonal antibody 4D5 |
| 60.5% | 64.9% | – | anti-ErbB2 IgG1κ murine monoclonal antibody 7C2 |
